A word on the Kd: it is a measure of binding affinity in units of concentration. A lower Kd goes with higher affinity.

The values below come from paper doi:10.1101/2021.09.16.460643 (bioRxiv, 2021).

Assay [1] deals with receiver domain of ARABIDOPSIS … KINASE 5 (AHK5RD), labelled with Alexa Fluor-488 (Arabidopsis thaliana) (UniProt Q3S4A7). Description: MST.
For assay [2], the target named is T1, ETR1 fragment comprising both HK and RD domain (ETR1HK-RD) (Arabidopsis thaliana, UniProt P49333 324-738).
T1 sequence (looked up): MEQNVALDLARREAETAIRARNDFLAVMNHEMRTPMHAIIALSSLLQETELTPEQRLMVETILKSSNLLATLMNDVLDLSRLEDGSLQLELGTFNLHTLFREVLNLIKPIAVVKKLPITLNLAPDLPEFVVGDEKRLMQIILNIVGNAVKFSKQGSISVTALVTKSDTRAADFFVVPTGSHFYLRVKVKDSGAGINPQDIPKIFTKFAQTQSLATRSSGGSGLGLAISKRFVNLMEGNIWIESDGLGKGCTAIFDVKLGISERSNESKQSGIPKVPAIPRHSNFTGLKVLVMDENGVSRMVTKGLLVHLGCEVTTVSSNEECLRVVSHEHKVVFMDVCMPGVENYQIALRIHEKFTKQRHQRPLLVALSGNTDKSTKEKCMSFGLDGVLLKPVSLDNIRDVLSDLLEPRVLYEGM
Put plainly: MST.

For “histidine kinase domain of ETHYLENE RESPONSE 1 (ETR1HK) (domain or fragment)”, the dissociation constant (Kd) in assay [1] came to 166 µM.

B1: receiver domain of ARABIDOPSIS … KINASE 5 (AHK5RD), labelled with Alexa Fluor-488 (domain or fragment, Arabidopsis thaliana)
chain: ETSKPKILLVEDNKINIMVAKSMMKQLGHTMDIANNGVEAITAINSSSYDLVLMDVCMPVLDGLKATRLIRSYEETGNWNAAIEAGVDISTSENEQVCMRPTNRLPIIAMTANTLAESSEECYANGMDSFISKPVTLQKLRECLQQYLH
modifications: Alexa Fluor-488 label (site not stated; printed as Alexa-Fluor 484 in the anisotropy methods)
As to B1, the Kd in assay [2] was 167 ± 50 µM.
